Reference: US20260199502A1, “BINDING MOLECULE” (priority 2022, published 2026)
Positions count from the first letter of the chain named.

What was measured:
[1] = target: panel of 14 peptides (UU0024, UU0070-UU0078, UU0080-UU0083) comprising the tag moiety; assay: SPR affinity of captured scFv against a peptide panel (Example 3); format: binding; settings: SPR single cycle kinetics, peptides 0.16 nM to 100 nM; to most target peptides in the tested panel
Protocol: Affinity measurements of the IBIIICI mouse scFv and IBIIICI CDR graft scFv variants obtained as described in Examples 1-2 were performed by SPR using a Biacore T200 instrument (GE Healthcare) and single cycle kinetics. Anti-FLAG M2 antibody (Sigma-Aldrich) was immobilized onto a Series S CM5 chip by primary amine coupling using NHS-EDC chemistry according to the manufacturer's instruction, allowing capture of the respective scFv through the FLAG tags provided by the expression vector. A 5-fold dilution series comprising of five concentrations (0.16 nM to 100 nM) of different peptides (Table 2) was sequentially injected over the flow cells, allowing binding to the captured scFv. Following a dissociation phase, regeneration of the surface was accomplished under acidic conditions using 10 mM glycine-HCl at pH 2.1. By subtracting the response curve of a surface having an anti-FLAG antibody immobilized thereto (the reference surface), response unit sensorgrams for all peptides were obtained. Data was analyzed using BIAeval v.3.1 (GE Healthcare).

[2] = Melting temperature (Tm) determination by nanoDSF; format: physicochemical; settings: inflection point #1, 1.0 mg/ml in PBS, 20-95° C. at 1° C./min
Protocol: In order to evaluate the stability of the purified scFv variants, the melting temperatures were determined by nanoDSF using a Prometheus NT.48 instrument (NanoTemper Inc). The nanoDSF technology measures the intrinsic fluorescence of a protein while it is being subjected to thermal denaturation, thereby characterizing the unfolding of the protein under native conditions.
The six purified IBIIICI CDR graft scFv variants were diluted to 1.0 mg/ml in PBS and loaded into a high sensitivity capillary (NanoTemper, #PR-C006) through capillary force. A melting temperature ramp was set to between 20° C. and 95° C., with heating at 1° C./min. Tryptophan emission was measured at 330 nm and 350 nm, and the calculated ratio was plotted against temperature to obtain melting curves for each variant. Tm values were deduced using the software PR ThermoControl (NanoTemper Inc).

B1: IBIIICI mouse scFv: known ancestral mouse scFv binding the peptide tag moiety, SEQ ID NO:25 (protein, listed as Mus musculus)
scFv: EVRLLQSGAALVRPGASVKLSCTASGFNIKDFNIHWVKQRPEQGLEWIGRIDPENGDAEYVPKFQVRATMTTDTSSNTVYLHLSSLTSGDTAVYYCTTGSYDLDVEYWGQGTTLTVSSGGGGSGGGGSGGGGSGGGGSELQMTQSPSSLSASLGDTVTITCHASQNINVWLSWYQQRPGNIPKLLIYKASTLHTGVPSRFRGSGSGTGFTLTISSLQPEDIATYYCQQGQSYPLTFGAGTKLELK
binding affinity [1]: low nanomolar

B2: IBIIICI CDR graft scFv variant NG (wt): original humanized IBIIICI CDR graft scFv, SEQ ID NO:54, NG at positions 62-63 of VH (protein)
scFv: QVQLVQSGAEVKKPGASVKVSCKASGFNIKDFNIHWVRQAPGQGLEWIGRIDPENGDAEYVPKFQGRVTMTRDTSTSTVYMELSSLRSEDTAVYYCTTGSYDLDVEYWGQGTLVTVSSGGGGSGGGGSGGGGSGGGGSDIQMTQSPSSLSASVGDRVTITCHASQNINVWLSWYQQKPGKAPKLLIYKASTLHTGVPSRFSGSGSGTDFTLTISSLQPEDFATYYCQQGQSYPLTFGQGTKLEIK
Tm [2]: 63.4 °C | binding affinity [1]: low nanomolar

B3: IBIIICI CDR graft scFv variant NA: humanized scFv point mutated variant, SEQ ID NO:53 (protein)
scFv: B2 scFv with G56A
Tm [2]: 60.8 °C | Tm ([2]; listed as IBIIICI CDR graft scFv NA): 61 °C

B4: IBIIICI CDR graft scFv variant SG: humanized scFv point mutated variant, SEQ ID NO:49 (protein)
scFv: B2 scFv with N55S
Tm [2]: 64.3 °C | Tm ([2]; listed as IBIIICI CDR graft scFv SG): 64 °C

B5: IBIIICI CDR graft scFv variant DG: humanized scFv point mutated variant, SEQ ID NO:52 (protein)
scFv: B2 scFv with N55D
Tm [2]: 62.4 °C

B6: IBIIICI CDR graft scFv variant GG: humanized scFv point mutated variant, SEQ ID NO:50 (protein)
scFv: B2 scFv with N55G
Tm [2]: 62.6 °C

B7: IBIIICI CDR graft scFv variant QG: humanized scFv point mutated variant, SEQ ID NO:51 (protein)
scFv: B2 scFv with N55Q
Tm [2]: 62.2 °C
